Data taken from US20190040130A1 (Alector, published 2019).
Numbering of substitutions follows the chain as printed. Numbers in names are those of the source.

T1: human TREM2 expressed on cells (human, UniProt Q9NZC2 19-230)
T1 construct: also called huT2 BW; cell expressed TREM2
T1 sequence: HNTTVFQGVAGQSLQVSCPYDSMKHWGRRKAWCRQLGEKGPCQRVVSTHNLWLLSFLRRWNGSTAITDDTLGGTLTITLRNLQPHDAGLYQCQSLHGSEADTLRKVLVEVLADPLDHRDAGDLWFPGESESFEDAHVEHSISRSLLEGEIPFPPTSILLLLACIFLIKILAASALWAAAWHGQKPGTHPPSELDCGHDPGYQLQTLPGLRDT

B1: AL2p-58 msFc (antibody)
chain 1: QVQLVQSGAEVKKPGASVKVSCKASGYAFSSQWMNWVRQAPGQRLEWIGRIYPGGGDTNYAGKFQGRVTITADTSASTAYMELSSLRSEDTAVYYCARLLRNQPGESYAMDYWGQGTLVTVSS
chain 2: DVVMTQSPDSLAVSLGERATINCRSSQSLVHSNRYTYLHWYQQKPGQSPKLLIYKVSNRFSGVPDRFSGSGSGTDFTLKISRVEAEDVGVYYCSQSTRVPYTFGQGTKLEIK
B2: AL2p-58 huIgG1 PSEG (antibody)
heavy: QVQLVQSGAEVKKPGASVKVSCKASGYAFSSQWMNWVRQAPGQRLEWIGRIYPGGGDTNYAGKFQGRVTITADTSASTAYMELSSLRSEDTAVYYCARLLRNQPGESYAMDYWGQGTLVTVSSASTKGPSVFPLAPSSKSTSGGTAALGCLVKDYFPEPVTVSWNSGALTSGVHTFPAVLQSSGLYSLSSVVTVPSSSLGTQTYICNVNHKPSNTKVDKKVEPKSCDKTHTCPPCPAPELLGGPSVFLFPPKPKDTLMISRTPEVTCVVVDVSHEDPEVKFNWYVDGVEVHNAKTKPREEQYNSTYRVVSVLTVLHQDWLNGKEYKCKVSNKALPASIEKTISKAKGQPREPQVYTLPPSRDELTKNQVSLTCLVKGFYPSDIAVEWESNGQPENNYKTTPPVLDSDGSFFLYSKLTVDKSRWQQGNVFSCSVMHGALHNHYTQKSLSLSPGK
light: DVVMTQSPDSLAVSLGERATINCRSSQSLVHSNRYTYLHWYQQKPGQSPKLLIYKVSNRFSGVPDRFSGSGSGTDFTLKISRVEAEDVGVYYCSQSTRVPYTFGQGTKLEIKRTVAAPSVFIFPPSDEQLKSGTASVVCLLNNFYPREAKVQWKVDNALQSGNSQESVTEQDSKDSTYSLSSTLTLSKADYEKHKVYACEVTHQGLSSPVTKSFNRGEC
B3: AL2p-h77 (antibody, IgG1, V domains shown)
VH: B1 chain 1 with Q32S, G55D, G62Q
VL: B1 chain 2 with R34G, K79T, R82S, V83L, E84Q, G89A, Q105G, L109V
notes: IgG1; Fab in monovalent BLI
B4: AL2p-h27 (antibody, IgG1, V domains shown)
VH: QVQLVQSGAEVKKPGASVKVSCKASGYAFSSSWMNWVRQAPGQGLEWIGRIYPGDGDTNYNGEFRVRATLTADTSTSTAYMELSSLRSEDTAVYFCARLLRNQPGESYAMDYWGQGTLVTVSS
VL: DVVMTQTPLSLSVTPGQPASISCRSSQSLVHSNGYTYLHWYLQKPGQSPQLLIYKVSNRFSGVPDRFSGSGSGTDFTLKISRVEAEDLGVYFCSQSTRVPYTFGQGTKLEIK
notes: IgG1; Fab in monovalent BLI
B5: AL2p-h24 (antibody, IgG1, V domains shown)
VH: B4 VH with K12V, V18L, V20I, G62Q, E63K, R65Q, V66G, T117A
VL: B4 VL
notes: IgG1; Fab in monovalent BLI
B6: AL2p-h50 (antibody, IgG1, V domains shown)
VH: B1 chain 1 with A16S, Q32S, R44G, I48M, G55D, G62Q, T74E, A76T
VL: B4 VL with L88V, F92Y
notes: IgG1; Fab in monovalent BLI
B7: AL2p-h43 (antibody, IgG1, V domains shown)
VH: B4 VH with V18L, G44R, T76A
VL: B4 VL with L88V, F92Y
notes: IgG1; Fab in monovalent BLI
B8: AL2p-h90 (antibody, IgG1, V domains shown)
VH: B1 chain 1 with Q32S, G55D, G62Q
VL: DVQMTQSPSSLSASVGDRVTITCRSSQSLVHSNGYTYLHWYQQKPGKSPKLLIYKVSNRFSGVPSRFSGSGSGTDFTLTISSLQPEDFATYYCSQSTRVPYTFGGGTKVEIK
notes: IgG1; Fab in monovalent BLI
B9: AL2p-h33 (antibody, IgG1, V domains shown)
VH: B4 VH with A16S, N61A, G62Q, E63K, R65Q, V66G, S77T
VL: B4 VL
notes: IgG1; Fab in monovalent BLI
B10: AL2p-h59 (antibody, IgG1, V domains shown)
VH: B1 chain 1 with Q32S, I48M, G55D, G62Q, A72R
VL: B4 VL with V2I, T7S, S12P, Q17E, L88V, F92Y, Q105G, L109V
notes: IgG1; Fab in monovalent BLI
B11: AL2p-h42 (antibody, IgG1, V domains shown)
VH: B1 chain 1 with Q32S, I48M, G55D, G62Q, A72R
VL: B4 VL with L88V, F92Y
notes: IgG1; Fab in monovalent BLI
B12: AL2p-h30 (antibody, IgG1, V domains shown)
VH: B1 chain 1 with Q32S, R44G, I48M, G55D, G62Q, I70M, A76T
VL: B4 VL
notes: IgG1; Fab in monovalent BLI
B13: AL2p-h26 (antibody, IgG1, V domains shown)
VH: B1 chain 1 with Q32S, G55D, G62Q
VL: B4 VL
notes: IgG1; Fab in monovalent BLI
B14: AL2p-h22 (antibody, IgG1, V domains shown)
VH: B1 chain 1 with Q32S, R44G, G55D, G62Q, I70M, A76T, A79V
VL: B4 VL
notes: IgG1; Fab in monovalent BLI
B15: AL2p-h47 (antibody, IgG1, V domains shown)
VH: B4 VH with I48M, A68V, L70M, A72R, A79V, F95Y
VL: B4 VL with L88V, F92Y
notes: IgG1; Fab in monovalent BLI
B16: AL2p-h21 (antibody, IgG1, V domains shown)
VH: B1 chain 1 with Q32S, R44G, I48M, G55D, G62Q, I70M, A72R, A76T, A79V
VL: B4 VL
notes: IgG1; Fab in monovalent BLI
B17: AL2p-h34 (antibody, IgG1, V domains shown)
VH: B4 VH with A16S, N61A, G62Q, E63K, R65Q, V66G, L70I
VL: B4 VL
notes: IgG1; Fab in monovalent BLI
B18: AL2p-h23 (antibody, IgG1, V domains shown)
VH: B4 VH with V18L, V20I, N61A, G62Q, E63K, R65Q, V66G, F95Y, T117A
VL: B4 VL
notes: IgG1; Fab in monovalent BLI
B19: AL2p-h35 (antibody, IgG1, V domains shown)
VH: B1 chain 1 with A16S, Q32S, R44G, I48M, G55D, G62Q, V68A, A76T
VL: B4 VL
notes: IgG1; Fab in monovalent BLI
B20: AL2p-h44 (antibody, IgG1, V domains shown)
VH: B1 chain 1 with V18L, Q32S, G55D, G62Q, V68A, I70L, Y95F
VL: B4 VL with L88V, F92Y
notes: IgG1; Fab in monovalent BLI
B21: AL2p-h19 (antibody, IgG1, V domains shown)
VH: B1 chain 1 with A16S, Q32S, R44G, I48M, G55D, G62Q, V68A, A76T
VL: B4 VL with V2I, L88V, F92Y
notes: IgG1; Fab in monovalent BLI
B22: AL2p-h25 (antibody, IgG1, V domains shown)
VH: B4 VH with V18L, V20I, F95Y, T117A
VL: B4 VL
notes: IgG1; Fab in monovalent BLI
B23: AL2p-h32 (antibody, IgG1, V domains shown)
VH: B4 VH with A16S, S77T
VL: B4 VL
notes: IgG1; Fab in monovalent BLI
B24: AL2p-58 (antibody, V domains shown)
VH: B1 chain 1
VL: B1 chain 2
B25: AL2p-59 (antibody, V domains shown)
VH: B1 chain 1 with A16S, Q32H, R44G, I48M, G55E, D57Q, G62Q, F64R, T74E, A76T
VL: B4 VL with D1G, S25T, G34Q, F60V, L88V, F92Y
B26: AL2p-60 (antibody, IgG1, V domains shown)
VH: B1 chain 1 with A16S, R44G, I48M, G62R, T74E, A76T
VL: B4 VL with D1G, G34R, F60R, L88V, F92Y
B27: AL2p huIgG1 E430G (antibody, V domains shown)
VH: QVQLQQSGPELVKPGASLKISCKASGYAFSSSWMNWVKQRPGKGLEWIGRIYPGDGDTNYNGEFRVRATLTADTSSTTAYMQLSSLTSEDSAVYFCARLLRNQPGESYAMDYWGQGASVTVSS
VL: B4 VL with S12P, T14S, P15L, Q17D, P18Q, Q50K, E86D, Q105G

The binders below were run against T2, human TREM2/DAP12 fusion protein in BW5147.G.1.4 NFAT-luciferase reporter cells (human, UniProt O43914 41-113, limits assumed) (assay: cell-based or functional assay).

Binder | EC50 (read off the curve); NFAT:luciferase luminescence, BWZ reporter cells, soluble IgG [µg/mL]
B1 | ~0.7

Target: T2, human TREM2/DAP12 fusion protein in …
Assay: cell-based or functional assay
Remark: another data set of the same source

Binder | plate bound signal activation, fold over AL2p [fold]
B2 | 10

Each binder was assayed against T1, human TREM2 expressed on cells (assay: FACS, BW cells).
Description: To examine cell binding of anti-TREM2 antibodies, recombinant, human TREM2-expressing BW5147. G.1.4 cells (ATCC® TIB48™) were established by stably expressing either mouse TREM2 or human TREM2 together with Dap12 using viral infection. Cells were harvested by scraping, washed in PBS, counted and plated on 96-well U bottom plates at 1×10⁵ cells/well. The plates were spun at 1,400 rpm for 3 minutes and primary anti-TREM2 or control antibodies were added in FACS buffer (PBS+2% FBS) and incubated on ice for one hour. Cells were subsequently centrifuged as before and washed thrice with FACS buffer. Cells were then incubated with anti-human PE conjugated secondary antibody (BD Biosciences) in FACS buffer for 30 minutes on ice. Cells were again washed thrice with FACS buffer and analyzed on a BD FACS Canto. Binding was measured as mean fluorescence intensity in the […].

Binder | Cell binding (FOB) [fold over background]
B3 | 83
B4 | 78
B5 | 69
B6 | 78
B7 | 91
B8 | 126
B9 | 74
B10 | 69
B11 | 79
B12 | 88
B13 | 78
B14 | 61
B15 | 93
B16 | 76
B17 | 84
B18 | 76
B19 | 69
B20 | 80
B21 | 87
B22 | 90
B23 | 81

Target: T2, human TREM2/DAP12 fusion protein in …
Assay: cell-based or functional assay
Remark: another data set of the same source

Binder | EC50 (read off the curve); NFAT:luciferase luminescence, BW reporter cells, soluble IgG [µg/mL]
B24 | ~1
B25 | ~2

What follows are binders tested against T1, human TREM2 expressed on cells (assay: cell-based or functional assay).

Binder | viability EC50, dendritic cells D558 [nM] | viability EC50, dendritic cells D559 [nM] | viability EC50, dendritic cells D560 [nM] | viability EC50, macrophages D559 [nM] | viability EC50, macrophages D560 [nM]
B26 | 0.152 | 0.244 | 0.178 | 0.194 | 0.154

Target: T2, human TREM2/DAP12 fusion protein in …
Assay: cell-based or functional assay
Remark: another data set of the same source

Binder | EC50 (read off the curve); NFAT:luciferase luminescence, BWZ reporter cells co-cultured 1:1 with THP-1 cells, 6 h [µg/mL]
B27 | ~0.3
